Blank lines part the entries; values can stand above or below the molecule they belong to.
Legend:
[1] = biological target: T1, Raf-1 proteins present in T-cell lysates (Homo sapiens, UniProt P04049); experiment: Cell-free system: binding of Raf-1 from T-cell lysates to FLAG-HMK-IL-2Rβ chain fusion proteins on anti-FLAG beads, anti-Raf-1 immunoblot; set-up: decrease of Raf-1 binding in comparison to WT control: unit not given here; conditions: T-cell lysates, anti-Raf-1 immunoblot; for binding of T-cell derived Raf-1 proteins: affinity beads coated with fusion protein
T1 construct: endogenous in cells; host or cells: PHA-stimulated human peripheral blood mononuclear cells (T cells), lysate
Text: (ii) In order to study the interaction of IL-2Rβ chain with intracellular molecules, the FLAG-HMK-IL-2Rβ chain cytoplasmic domain fusion protein was purified from bacterial lysate using the M2 anti-FLAG monoclonal antibody in a standard affinity chromatography procedure. More specifically, bacterial lysate proteins were absorbed onto anti-FLAG (M2) affinity column (IBI-Kodak, New Haven, Conn., USA). After washing the column, the adsorbed proteins were eluted with either glycine buffer (pH 3) or FLAG peptide (10^−4M). Proteins in various fractions were analyzed for expected size (about 33 kDa) and purity after separation on SDS-PAGE and Commassie blue staining. The presence of a functional HMK recognition site was confirmed by phosphorylation of the purified 33 kDa IL-2Rβ chain fusion protein by HMK. More specifically, the eluted fusion proteins were tested for susceptibility to phosphorylation by incubation with the catalytic subunit of bovine heart muscle kinase (Sigma) (1 U/ul) in buffer containing 20 mM Tric-HCl, pH 7.5, 1 mM DTT, 100 mM NaCl, 10 mM MgCl2 and 1μCi [γ^32p] ATP for 30 min at 37° C. followed by SDS-PAGE and autoradiography. Purified FLAG-HMK-IL-2Rβ chain fusion proteins were used as an affinity reagent to probe for cytosolic proteins present in lysates of human T cells, metabolically labeled with [^35S ]-methionine, that bind to the IL-2Rβ chain. […] For [^35S]-methionine labeling, the cells were suspended at 4×10^7 cells/ml at 37° C. followed by addition of 0.5 mCi of [^35S]-methionine for 4 hours prior to lysis in Dounce homogenization buffer and application of the lysate to the affinity column. Several [^35S]-labeled proteins were retained by the FLAG-HMK-IL-2Rβ chain cytosolic domain fusion protein bound to the affinity column. One of these proteins was identified as Raf-1 by immunoblotting using a polyclonal antibody specific for the SP-63 peptide which corresponds to the C-terminal fragment of Raf-1. A molar excess of the competing SP-63 peptide blocked binding of the anti-SP-63 antibody to Raf-1.
Using the basic cell-free system described above, a number of FLAG-HMK-IL-2Rβ chain wild type FLAG-HMK-IL2Rβ chain deletion mutant proteins were then studied with respect to this specific interaction with Raf-i proteins present in T-cell lysates. These FLAG-HMK-IL2Rβ chain wild type (WT) and deletion mutants lacking certain defined domains of the IL-2Rβ chain were used to identify the IL-2Rβ chain domain involved in Raf-1 binding. Assay conditions were similar to those described above. […] In FIG. 1, there is shown, schematically, all of the constructs, i.e., FLAG-HMK-IL-2Rβ chain fusion proteins produced in transformed bacterial cells and used in this study. These FLAG-HMK- fusion proteins-coated beads were then used as affinity reagents to absorb Raf-1 proteins present in T-cell lysates. T-cell derived proteins bound to FLAG-HMK fusion proteins were then eluted using buffer containing FLAG peptide, separated on SDS-PAGE, transferred onto Immobilon membrane and blotted with anti-Raf-1 antibody.
The absorbed proteins were washed, eluted with FLAG peptide and probed for the presence of Raf-1 and 14-3-3 proteins on immunoblots. […] Washed cells (about 4×10^7) were lysed in Dounce homogenization buffer, centrifuged (15×10^3 xg for 15 min.) and supernatants applied onto washed anti-FLAG (M2) affinity column (IBI-Kodak) coated with bacterial lysates interacted with one of the FLAG-HMK fusion proteins. […]

[2] = tested on: T-cell derived, active serine/threonine kinase; experiment: Protein kinase reaction on anti-FLAG beads coated with FLAG-HMK-IL-2Rβ chain proteins and exposed to T-cell lysates; assay type: biochemical, human; conditions: for level of (His)6-Mek-1 kinase phosphorylation: kinase defective (His)6-Mek-1 as substrate; for serine/threonine kinase activity, phosphorylation of p70 protein: no exogenously added substrate
Text: FLAG-HMK-IL-2Rβ chain wild type and deletional mutants lacking certain defined domains of the IL-2Rβ chain (see Examples 1 and 2 and FIG. 1) were used to identify IL-2Rβ chain domain involved in binding T-cell derived, active serine/threonine kinase. Assay conditions were similar to those noted above. […] FLAG-HMK- fusion proteins coated beads were further used as affinity reagents to absorb proteins present in T-cell lysates. T-cell derived proteins bound to FLAG-MHK fusion proteins were then tested for serine/threonine kinase activity in the absence or presence of exogenous substrates: Histone H-1 or (His),-Mek-1. Products of kinase reactions were boiled in SDS-PAGE sample buffer followed by separation on SDS-PAGE, transfer onto Immobilon membrane and autoradiography. The following are the experiments that were carried out and their results: […]

(His)6-Raf-1 [3] = biological target: T2, (His)6-Raf-1 (Homo sapiens, UniProt P04049); experiment: Totally cell-free system: binding of bacterially produced (His)6-Raf-1 to FLAG-HMK-IL-2Rβ chain fusion proteins, anti-Raf-1 immunoblot; conditions: for amount of Raf-1 proteins bound, % of the positive control value (Raf-1 binding to FLAG-HMK-IL-2Rβ chain WT): estimated using Hewlett Packard ScanJet
T2 construct: made in house; host or cells: M15 bacteria (E. coli), pQE-30
Description: For the construction of the (His)6-Raf-1 expression plasmid, PCR was performed using the […] cDNA as template and oligonucleotide primers designed to facilitate cloning into the pQE-30 plasmid according to the manufacturer's protocol (QIAGEN, QIAexpressionist; Chatsworth, CA). (His)6-Raf-1 protein was produced in M15 bacteria by IPTG induction, and purified on Ni-NTA resin (QIAGEN). Affinity purification yielded a 72-74 kD protein which was recognized by anti Raf-1 antibody.
Accordingly, in this totally cell-free assay, FLAG-HMK-IL-2Rβ chain wild type and deletion mutants lacking at least one of several defined domains of the IL-2Rβ chain (see Example 1) were used to identify the IL-2Rβ chain domain involved in Raf-1 binding. Assay conditions were similar to those described in Example 1. Briefly, bacterially produced proteins: FLAG-HMK-IL-2Rβ chain wild type (WT), FLAG-HMK-IL-2Rβ chain containing only proline rich C-terminal (CT^+), FLAG-HMK-IL-2Rβ chain mutants lacking:serine rich region (S^−), acidic domain (A^−), acidic domain and proline rich C-terminal (A^−CT^−) were incubated with bacterially produced (His)6-Raf-1 (for all constructs see FIG. 1) followed by adsorption of FLAG-HMK-IL-2Rβ chain/Raf-1 complexes on anti-FLAG affinity beads. After extensive washing, IL-2Rβ chain/Raf-1 complexes were competitively eluted from anti-FLAG beads using buffer containing FLAG peptide. Eluted proteins were separated on SDS-PAGE, transferred onto Immobilon membrane and blotted with anti-Raf-1 antibody.

(His)6-Raf-1 [4] = biological target: T2, (His)6-Raf-1; experiment: Kinase activity toward Mek-1 after interaction of FLAG-HMK-IL-2Rβ chain with bacterially produced (His)6-Raf-1; assay type: biochemical; conditions: interaction with (His)6-Raf-1; enzymatically inactive (His)6-Mek-1 substrate
Description: Bacterial lysates containing FLAG-HMK-IL-2Rβ chain wild type and (His)6-Raf-1 proteins were used (see Example 2) to test the hypothesis that the IL-2Rβ chain induces catalytic activity of Raf-1. Assay conditions were similar to those described above. Briefly, bacterially produced proteins: FLAG-HMK-IL-2Rβ chain wild type (WT) or FLAG-HMK (negative control) (for all constructs see FIG. 1) were incubated with bacterial lysates containing either (His)6-Raf-1 or (His)6 (negative control) followed by the absorption of protein complexes on anti-FLAG affinity beads. […] Products of kinase reactions were boiled in SDS-PAGE sample buffer followed by separation on SDS-PAGE, transfer onto Immobilon membrane and autoradiography.

- decrease of Raf-1 binding in comparison to WT control [1]: 50-80
- amount of Raf-1 proteins bound, % of the positive control value (Raf-1 binding to FLAG-HMK-IL-2Rβ chain WT) ((His)6-Raf-1 [3]): 17-50%
B3: FLAG-HMK-IL-2Rβ chain mutant A-: FLAG-HMK-IL-2Rβ chain mutant lacking the acidic domain (protein)
chain: NCRNTGPWLKKVLKCNTPDPSKFFSQLSSEHGGDVQKWLSSPFPSSSFSPGGLAPEISPLEVLERDKVTQLLLQPLSGEDDAYCTFPSRDDLLLFSPSLLGGPSPPSTAPGGSGAGEERMPPSLQERVPRDWDPQPLGPPTPGVPDLVDFQPPPELVLREAGEEVPDAGPREGVSFPWSRPPGQGEFRALNARLPLNTDAYLSLQELQGQDPTHLV
modifications: left off: small tags and cut ends
notes: FLAG-HMK-IL-2Rβ chain mutant lacking the acidic domain
- level of (His)6-Mek-1 kinase phosphorylation [2]: Background levels
- serine/threonine kinase activity, phosphorylation of p70 protein [2]: no phosphorylated band p70

- binding of T-cell derived Raf-1 proteins [1]: no binding
- amount of Raf-1 proteins bound, % of the positive control value (Raf-1 binding to FLAG-HMK-IL-2Rβ chain WT) ((His)6-Raf-1 [3]): 0%
B4: mutant A^−CT^−: FLAG-HMK-IL-2Rβ chain mutant lacking both acidic domain and proline rich C-terminal (protein)
chain: NCRNTGPWLKKVLKCNTPDPSKFFSQLSSEHGGDVQKWLSSPFPSSSFSPGGLAPEISPLEVLERDKVTQLLL
modifications: left off: small tags and cut ends
notes: FLAG-HMK-IL-2Rβ chain mutant lacking both acidic domain and proline rich C-terminal
- level of (His)6-Mek-1 kinase phosphorylation [2]: Background levels
- serine/threonine kinase activity, phosphorylation of p70 protein [2]: no phosphorylated band p70

Second part, the molecule before the results:

B1: FLAG-HMK-IL-2Rβ chain WT: bacterially produced fusion protein: FLAG epitope, HMK site and wild type IL-2Rβ chain cytoplasmic domain (protein)
chain: NCRNTGPWLKKVLKCNTPDPSKFFSQLSSEHGGDVQKWLSSPFPSSSFSPGGLAPEISPLEVLERDKVTQLLLQQDKVPEPASLSSNHSLTSCFTNQGYFFFHLPDALEIEACQVYFTYDPYSEEDPDEGVAGAPTGSSPQPLQPLSGEDDAYCTFPSRDDLLLFSPSLLGGPSPPSTAPGGSGAGEERMPPSLQERVPRDWDPQPLGPPTPGVPDLVDFQPPPELVLREAGEEVPDAGPREGVSFPWSRPPGQGEFRALNARLPLNTDAYLSLQELQGQDPTHLV
modifications: left off: small tags and cut ends
- binding of T-cell derived Raf-1 proteins [1]: bind T-cell derived Raf-1 proteins equally well
- level of (His)6-Mek-1 kinase phosphorylation [2]: increase
- serine/threonine kinase activity, phosphorylation of p70 protein [2]: bind T-cell derived protein(s) expressing serine/threonine kinase activity
- binding of Raf-1 proteins ((His)6-Raf-1 [3]; anti-Raf-1 immunoblot): bind Raf-1 proteins equally well
- induction of kinase activity toward Mek-1 kinase ((His)6-Raf-1 [4]): did not result in the induction of kinase activity

B2: FLAG-HMK-IL-2Rβ chain CT^+: FLAG-HMK-IL-2Rβ chain containing only the proline rich C-terminal (protein)
chain: QPLSGEDDAYCTFPSRDDLLLFSPSLLGGPSPPSTAPGGSGAGEERMPPSLQERVPRDWDPQPLGPPTPGVPDLVDFQPPPELVLREAGEEVPDAGPREGVSFPWSRPPGQGEFRALNARLPLNTDAYLSLQELQGQDPTHLV
modifications: left off: small tags and cut ends
notes: FLAG-HMK-IL-2Rβ chain containing only the proline rich C-terminal
- binding of T-cell derived Raf-1 proteins [1]: no binding
- level of (His)6-Mek-1 kinase phosphorylation [2]: Background levels
- serine/threonine kinase activity, phosphorylation of p70 protein [2]: no phosphorylated band p70
- amount of Raf-1 proteins bound, % of the positive control value (Raf-1 binding to FLAG-HMK-IL-2Rβ chain WT) ((His)6-Raf-1 [3]): 0%-10%
